Data on one substance can be found in PMC7443692.

The test deals with SARS-CoV-2 Spike glycoprotein trimer immunogen (stabilized, soluble ectodomain) (SARS-CoV-2 | not stated) (UniProt P0DTC2). The test is described as follows: negative stain electron microscopy.

Consider “SARS-CoV-2 Spike glycoprotein trimer immunogen (stabilized, soluble ectodomain) (from UniProt P0DTC2 14-1208)”, for which the stoichiometry N was determined as 3.
